Results on two molecules are retold here after publication PMC6678494, “Characterization of the First Bacterial and Thermostable GDP-Mannose 3,5-Epimerase” (International Journal of Molecular Sciences, 2019).

One series concerns the target T1, MfGM35E (Candidatus Methylacidiphilum fumarolicum, UniProt A0ABM9IGG7).
T1 construct: gene MFUM_2356; codon-optimized gene in pET21 (NdeI/XhoI), C-terminal His6-tag kept, E. coli BL21(DE3), Ni-NTA, about 37 kDa
Kind of series: specific activity with added NAD+, HPAEC-PAD. The format is biochemical. The conditions noted are these: 2 mM GDP-Man, 100 mM MOPS pH 7.5, 50 °C; independent of added NAD+ concentration.

Substrate in series [1]: Nc1nc2c(ncn2[C@@H]2O[C@H](COP(=O)(O)OP(=O)(O)O[C@H]3O[C@H](CO)[C@@H](O)[C@H](O)[C@@H]3O)[C@@H](O)[C@H]2O)c(=O)[nH]1
Kind of series: initial rate of GDP-L-galactose formation, HPAEC-PAD, Michaelis-Menten fit. The format is biochemical, Candidatus Methylacidiphilum fumarolicum. Particulars: 100 mM MOPS pH 7, 60 °C, 20-2000 µM substrate.

Turning to `NC(=O)c1ccc[n+]([C@@H]2O[C@H](COP(=O)(O)OP(=O)(O)OC[C@H]3O[C@@H](n4cnc5c(N)ncnc54)[C@H](O)[C@@H]3O)[C@@H](O)[C@H]2O)c1` [NAD^+], the “% increase in activity” value at MfGM35E was found to be 65%.

B1: MfGM35E (Candidatus Methylacidiphilum fumarolicum) (protein)
chain: MKKALVAGAGGFIGHHLVNFLKEKGYWVRGVDIKEPEYEKSRSDEFYLLDLRYWGNCLEATKGVDEVYQLAADMGGIGYISGNHAEIAKNNILINTHMLEASYQNGVKRYFYSSSACIYPSYRQQSVDVIPLKEEDAMPADPEEGYGWEKLFAEKLCQYYQEDKGIETRIARFHNVYGPLGTYKGGREKAPAAICRKIALAEDSSEIEVWGDGKQTRSFLYIQDCVEGIYLITQSDYPKPLNLGSEELVTIDQLVEMTAKVANKNIRIRHNLSKPQGVRGRNSDNSKLYKITGWRPKFPLLEGLKLTYPWIAERVARERNMQGCQ
notes: codon-optimized gene in pET21 (NdeI/XhoI), C-terminal His6-tag kept, E. coli BL21(DE3), Ni-NTA, about 37 kDa
Broadly, the Km is the concentration of substrate that gives half-maximal velocity. The kcat is the number of substrate molecules converted per active site and unit of time at saturation. As for B1, in series [1], the Km is listed as 98 µM and the kcat turned out to be 0.2 s⁻¹.
